From patent US20080124340A1
One block for each binder: values may come before it.

Experiments:
[1] = target: T1, human erythropoietin receptor (huEpoR), cell surface expressed (human) (UniProt P19235); assay: cell-based or functional assay
T1 sequence (looked up): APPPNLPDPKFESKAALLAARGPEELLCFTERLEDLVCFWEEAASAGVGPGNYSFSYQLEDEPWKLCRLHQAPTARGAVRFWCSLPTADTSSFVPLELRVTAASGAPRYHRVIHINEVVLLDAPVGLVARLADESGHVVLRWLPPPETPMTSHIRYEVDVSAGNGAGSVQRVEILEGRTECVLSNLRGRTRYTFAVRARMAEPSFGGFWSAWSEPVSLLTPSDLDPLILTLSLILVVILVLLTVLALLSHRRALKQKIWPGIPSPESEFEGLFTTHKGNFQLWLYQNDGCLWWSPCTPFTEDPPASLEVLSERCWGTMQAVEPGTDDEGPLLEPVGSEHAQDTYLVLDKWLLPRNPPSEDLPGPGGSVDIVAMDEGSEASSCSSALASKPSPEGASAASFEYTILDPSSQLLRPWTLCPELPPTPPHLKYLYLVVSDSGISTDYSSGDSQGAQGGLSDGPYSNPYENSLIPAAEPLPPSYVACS

[2] = target: cynomolgus monkey EpoR (cynoEpoR) (cynomolgus monkey); assay: SPR, Biacore T100; scFv-Fc captured by anti-human IgG Fc on CM5 chip, EpoR as analyte
[3] = target: T2, soluble human erythropoietin receptor protein (huEpoR) (human) (UniProt P19235); assay: as above
T2 sequence (looked up): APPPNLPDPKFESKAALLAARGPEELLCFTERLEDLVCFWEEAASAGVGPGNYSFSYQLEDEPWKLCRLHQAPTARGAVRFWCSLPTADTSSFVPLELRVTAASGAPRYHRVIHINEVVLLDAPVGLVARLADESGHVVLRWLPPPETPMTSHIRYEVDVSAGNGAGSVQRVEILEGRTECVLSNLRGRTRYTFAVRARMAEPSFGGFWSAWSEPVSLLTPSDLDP

[4] = target: cynomolgus monkey EpoR (cynoEpoR) (cynomolgus monkey); assay: SPR, Biacore T100; scFv-Fc captured on CM5 chip, EpoR as analyte; fit to steady-state model (off-rate too rapid); clone #34, cynomolgus EpoR, steady-state fit
[5] = target: cynomolgus monkey EpoR (cynoEpoR) (cynomolgus monkey); assay: SPR, Biacore T100; scFv-Fc captured on CM5 chip, EpoR as analyte; fit to steady-state model (off-rate too rapid); clone #318, cynomolgus EpoR, steady-state fit

B1: clone 13 scFv-Fc protein (Fc fusion, part only; not given: scFv linker and IgG1 Fc, not shown: a dimerising Fc or GST)
scFv, part: QVQLQQSGGGVVQPGRSLRLSCAASGFTFSDYAMHWVRQAPGKGLEWVAVISNHGKSTYYADSVKGRFTISRDNSKHMLYLQMNSLRADDTALYYCARDIALAGDYWGQGTLVTVSADIQMTQSPSSLSASVGDRVTITCRASQSISSYLNWYQQLPGKVPKLLIYGASKLQSGVPSRFSGSGSGTDFTLTISSLQPEDFATYYCLQDYNYPLTFGPGTRLEIK
Average EC50, UT-7-luciferase assay [1]: 4.03 nM
Kd [2]: 920 nM
koff [2]: 0.0597 s⁻¹
kon [2]: 65000 M⁻¹ s⁻¹
Kd [3]: 1040 nM
koff [3]: 0.0568 s⁻¹
kon [3]: 55000 M⁻¹ s⁻¹

B2: clone 276 scFv-Fc protein (Fc fusion, part only; not given: scFv linker and IgG1 Fc, not shown: a dimerising Fc or GST)
scFv, part: EVQLVQSGGGLVQPGGSLRLSCAASGFTFSSYWMSWVRQAPGKGLEWVANIKPDGSEKYYVDSVKGRFTISRDNAKNSVYLQMNSLRAEDTAVYYCARVSRGGSYSDWGRGTMVTVSSQSVLTQPPSASGSPGQSVTISCTGTSSDVGGFNYVSWYQKYPGKAPKLVIYEVSKRPSGVPDRFSGSKSGNTASLTVSGLQAEDEADYYCSSWAPGKNLFGGGTKLTVL
Average EC50, UT-7-luciferase assay [1]: 0.322 nM

B4: clone 16 scFv-Fc protein (Fc fusion, part only; not given: scFv linker and IgG1 Fc, not shown: a dimerising Fc or GST)
scFv, part: QVQLQESGPGLVKPSETLSLTCTVSGGYINNYYWSWIRQPPGKGLEWIGYIHYSGSTYYNPSLKSRVTISEDTSKNQFSLKLSSATAADTAVYYCARVGYYYDSSGYNLAWYFDLWGRGTLVTVSASSELTQDPAVSVALGQTVRITCQGDNLRSYSATWYQQKPGQAPVLVLFGENNRPSGIPDRFSGSKSGDTAVLTITGTQTQDEADYYCTSRVNSGNHLGVFGPGTQLTVL
Kd [2]: 4360 nM
koff [2]: 0.283 s⁻¹
kon [2]: 65000 M⁻¹ s⁻¹
Kd [3]: 2190 nM
koff [3]: 0.142 s⁻¹
kon [3]: 65000 M⁻¹ s⁻¹

B7: clone 323 scFv-Fc protein (Fc fusion, part only; not given: scFv linker and IgG1 Fc, not shown: a dimerising Fc or GST)
scFv, part: QVQLVESGGGLVQPGGSLRLSCAVSGFTFSKYWMTWVRQAPGKGLEWVANIKPDGSEKYYVESVKGRFTISRDNAKNSVYLQMNSVRAEDTAVYYCARVSRGGSFSDWGRGTMVTVSSQSALTQPASVSGSPGQSITISCTGTSSDVGSYNLVSWYQQHPGKVPKLIIYEVSNRPSGVSHRFSGSKSGNTASLTISGLQAEDEADYYCSSLTSSGTWVFGGGTKVTVL
Average EC50, UT-7-luciferase assay [1]: 0.613 nM

B8: clone 352 scFv-Fc protein (Fc fusion, part only; not given: scFv linker and IgG1 Fc, not shown: a dimerising Fc or GST)
scFv, part: EVQLVQSGGGLVQPGGSLRLSCAASGFRFSSYWMTWVRQAPGKGLEWVANIKPDGSEKYYVDSVKGRFTMSRDNAKNSVYLQMNSLRAEDTAVYYCARVSRGGSFSDWGQGTLVTVSSQSALTQPASVSGSPGQSITIPCTGTSSDIGTYDYVSWYQQHPGKVPKVIIYEVTNRPSGVSNRFSGSKSGNTASLTISGLQADDEADYYCNSFTKNNTWVFGGGTKLTVL
Average EC50, UT-7-luciferase assay [1]: 2.16 nM

B9: clone 34 scFv-Fc protein (Fc fusion, part only; not given: Linker and IgG1 Fc, not shown: another chain or arm of the molecule; a dimerising Fc or GST; small tags and cut ends)
VH: QVQLQQSGAEVKKPGASVKVSCKASGYTFSGYYMHWVRQAPGQGLEWMGWINPNSGSTNYAQKFLGRVTMTRDTSISTAYMELSSLRSDDTAVYYCARGHSGDYFDYWGQGTLVTVSA
VL: EIVLTQSPSSLSASVGDRVTITCRASQSVSSWLAWYQQRPGQAPKLLIYAARLRGGGPSRFSGSGSGTEFTLTISSLQPEDFATYFCQQSYSTPISFGGGTKLEIK
Average EC50, UT-7-luciferase assay [1]: 0.11 nM
Kd [3]: 378 nM
koff [3]: 0.203 s⁻¹
kon [3]: 536000 M⁻¹ s⁻¹
Kd [4]: 5810 nM

B10: clone 201 scFv-Fc protein (Fc fusion, part only; not given: scFv linker and IgG1 Fc, not shown: a dimerising Fc or GST)
scFv, part: QVQLQESGSGLARPSQTLSLTCAVSGGSISSSAFSWNWIRQPPGKGLEWIGYIYHTGITDYNPSLKSRVTISVDRSKNQFSLNVNSVTAADTAVYYCARGHGSDPAWFDPWGKGTLVTVSSQSVLTQPPSVSVSPGQTASITCSGDKLGDKYASWYQQRPGQSPVLVIYRDTKRPSGIPERFSGSNSGNTATLTISGTQAVDEADYYCQAWDSTTSLVFGGGTKLTVL
Average EC50, UT-7-luciferase assay [1]: 8.28 nM
Kd [2]: 18600 nM
koff [2]: 0.0508 s⁻¹
kon [2]: 2700 M⁻¹ s⁻¹
Kd [3]: 4030 nM
koff [3]: 0.0187 s⁻¹
kon [3]: 4600 M⁻¹ s⁻¹

B11: clone 318 scFv-Fc protein (Fc fusion, part only; not given: scFv linker and IgG1 Fc, not shown: a dimerising Fc or GST)
scFv, part: QVQLVESGGGLVQPGGSLRLSCAVSGFTFSKYWMTWVRQAPGKGLEWVANIKPDGSEKYYVESVKGRFTISRDNAKNSVYLQMNSVRAEDTAVYYCARVSRGGSFSDWGQGTLVTVSSQSVLTQPPSASGSPGQSVTISCTGTSSDVGGYNYVSWYQQHPGRAPKLIIYEVSKRPSGVPDRFSGSKSGNTASLTVSGLQADDEADYYCNSYAGSIYVFGSGTKVTVL
Average EC50, UT-7-luciferase assay [1]: 0.0154 nM
Kd [3]: 847 nM
koff [3]: 0.558 s⁻¹
kon [3]: 659000 M⁻¹ s⁻¹
Kd [5]: 4890 nM

B13: clone 15 scFv-Fc protein (Fc fusion, part only; not given: scFv linker and IgG1 Fc, not shown: a dimerising Fc or GST)
scFv, part: QVQLQESGPGLVRPSGTLSLTCAVSGGSIGSSNWWSWVRQAPGKGLEWIGEISQSGSTNYNPSLKGRVTISLDRSRNQLSLKLSSVTAADTAVYYCARQLRSIDAFDIWGPGTTVTVSASYVLTQPPSVSVSPGLTATITCSGDKLGDKYASWYQQKPGQSPVLVIYQDRKRPSGIPERFSGSNSGNTATLTISGTQAVDEADYYCQAWDSDTSYVFGTGTQLTVL
Average EC50, UT-7-luciferase assay [1]: 2.8 nM
Kd [2]: 3130 nM
koff [2]: 0.115 s⁻¹
kon [2]: 37000 M⁻¹ s⁻¹
Kd [3]: 1950 nM
koff [3]: 0.119 s⁻¹
kon [3]: 61000 M⁻¹ s⁻¹

B14: clone 378 scFv-Fc protein (Fc fusion, part only; not given: scFv linker and IgG1 Fc, not shown: a dimerising Fc or GST)
scFv, part: QVQLVESGGGLVQPGRSLILSCAVSGFTFSKYWMTWVRQAPGKGLEWVANIKPDGSEKYYVESVKGRFTISRDNAKNSVYLQMNSVRAEDTAVYYCARVSRGGSFSDWSQGTLVTVSSQSALTQPPSASGSPGQSVTISCTGTSGDVGAYNYVSWYQQYPGKAPKLMIYEVSKRPSGVPDRFSGSKSGNTASLTVSGLQAEDEADYYCNSYRGSNGPWVFGGGTKVTVL
Average EC50, UT-7-luciferase assay [1]: 0.055 nM

Continued by falling Kd [3], values first:

Average EC50, UT-7-luciferase assay [1]: 5.87 nM
Kd [2]: 121 nM
koff [2]: 0.0258 s⁻¹
kon [2]: 213000 M⁻¹ s⁻¹
Kd [3]: 212 nM
koff [3]: 0.0335 s⁻¹
kon [3]: 158000 M⁻¹ s⁻¹
B3: clone 319 scFv-Fc protein (Fc fusion, part only; not given: Linker and IgG1 Fc, not shown: another chain or arm of the molecule; a dimerising Fc or GST; small tags and cut ends)
VH: QVQLVQSGAEIKKPGASVKVSCKTFGSPFSTNDIHWVRQAPGQGLEWMGIIDTSGAMTRYAQKFQGRVTVTRETSTSTVYMELSSLKSEDTAVYYCAREGCTNGVCYDNGFDIWGQGTLVTVSS
VL: DIQMTQSPSTLSASIGDRVTITCRASEGIYHWLAWYQQKPGKAPKLLIYKASSLASGAPSRFSGSGSGTDFTLTISSLQPDDFATYYCQQYSNYPLTFGGGTKLEIK

Average EC50, UT-7-luciferase assay [1]: 0.607 nM
Kd [2]: 539 nM
koff [2]: 0.0221 s⁻¹
kon [2]: 41000 M⁻¹ s⁻¹
Kd [3]: 163 nM
koff [3]: 0.00296 s⁻¹
kon [3]: 18000 M⁻¹ s⁻¹
B6: clone 295 scFv-Fc protein (Fc fusion, part only; not given: scFv linker and IgG1 Fc, not shown: a dimerising Fc or GST)
scFv, part: EVQLVESGGGLVQPGGSLRLSCAASGFTFSSYAMSWVRQAPGKGLEWVSGISGSGSSEGGTYYADSVKGRFTLSRDNSKNTLYLQMNSLRAEDTALYYCVKDRPSRYSFGYYFDYWGRGTLVTVSSLPVLTQPPSVSVSPGQTASIACSGNKLGDKYVSWYQQKPGQSPLLVIYQDTKRPSGIPERFSGSNSGNTATLTISGTQAMDEADYYCQAWDSSTDVVFGGGTKLTVL

Average EC50, UT-7-luciferase assay [1]: 0.381 nM
Kd [2]: 1210 nM
koff [2]: 0.361 s⁻¹
kon [2]: 299000 M⁻¹ s⁻¹
Kd [3]: 108 nM
koff [3]: 0.246 s⁻¹
kon [3]: 2.28e+06 M⁻¹ s⁻¹
B12: clone 307 scFv-Fc protein (Fc fusion, part only; not given: scFv linker and IgG1 Fc, not shown: a dimerising Fc or GST)
scFv, part: EVQLVESGGGLVQPGGSLRLSCAVSGFTFSKYWMTWVRQAPGKGLEWVANIKPDGSEKYYVESVKGRFTISRDNAKNSVYLQMNSVRAEDTAVYYCARVSRGGSFSDWGQGTMVTVSSQSVLTQPPSASGSPGQSVTISCTGTSSDVGGYNYVSWYQQHPDKAPRLMIYDVNKRPSGVPDRFSGSKSGNTASLTVSGLQAEDEAHYYCNSYAGSNNWVFGGGTQLTVL

Average EC50, UT-7-luciferase assay [1]: 0.0075 nM
Kd [2]: 890 nM
koff [2]: 0.0965 s⁻¹
kon [2]: 108000 M⁻¹ s⁻¹
Kd [3]: 45.4 nM
koff [3]: 0.0373 s⁻¹
kon [3]: 822000 M⁻¹ s⁻¹
B5: clone 330 scFv-Fc protein (Fc fusion, part only; not given: scFv linker and IgG1 Fc, not shown: a dimerising Fc or GST)
scFv, part: EVQLVESGGGLVQPGGSLRLSCAVSGFTFSKYWMTWVRQAPGKGLEWVANIKPDGSEKYYVESVKGRFTISRDNAKNSVYLQMNSVRAEDTAVYYCARVSRGGSFSDWGQGTLVTVSSQSALTQPPSASGSPGQSVTISCTGTSSDVGAYNYVSWYQQHPGKAPKLMIYEVARRPSGVPDRFSGSKSGNTASLTVSGLQAEDEADYYCSSYAGSNNFAVFGRGTKLTVL
